Columns and labels:
[1] = target: T1, human GARP-proTGFβ1 complex (human, UniProt Q14392 20-627; P01137 30-390, limits assumed); assay: monovalent Fab affinity (Biacore); repeats the 12th table
T1 construct: also called hGARP-proTGFβ1

[2] = target: T2, human LRRC33-proTGFβ1 complex (human, UniProt Q86YC3 19-650; P01137 30-390, limits assumed); assay: as above
T2 construct: also called hLRRC33-proTGFβ1

[3] = target: T3, human LTBP3-proTGFβ1 complex (human, UniProt Q9NS15 44-1303; P01137 30-390, limits assumed); assay: as above
T3 construct: also called hLTBP3-proTGFβ1

[4] = target: T4, human LTBP1-proTGFβ1 complex (human, UniProt Q14766 347-1721; P01137 30-390); assay: as above
T4 construct: also called hLTBP1-proTGFβ1

[5] = target: T1, human GARP-proTGFβ1 complex; assay: SPR (Biacore), monovalent Fab
[6] = target: T2, human LRRC33-proTGFβ1 complex; assay: SPR (Biacore), monovalent Fab
[7] = target: T3, human LTBP3-proTGFβ1 complex; assay: SPR (Biacore), monovalent Fab
[8] = target: T4, human LTBP1-proTGFβ1 complex; assay: SPR (Biacore), monovalent Fab
[9] = target: T3, human LTBP3-proTGFβ1 complex; assay: SPR (Biacore)
[10] = target: T4, human LTBP1-proTGFβ1 complex; assay: SPR (Biacore)
[11] = target: T3, human LTBP3-proTGFβ1 complex; assay: binding profile; method not stated
[12] = target: T4, human LTBP1-proTGFβ1 complex; assay: binding profile; method not stated

T1 sequence (Q14392 20-627 limits assumed, chain 1 of 2): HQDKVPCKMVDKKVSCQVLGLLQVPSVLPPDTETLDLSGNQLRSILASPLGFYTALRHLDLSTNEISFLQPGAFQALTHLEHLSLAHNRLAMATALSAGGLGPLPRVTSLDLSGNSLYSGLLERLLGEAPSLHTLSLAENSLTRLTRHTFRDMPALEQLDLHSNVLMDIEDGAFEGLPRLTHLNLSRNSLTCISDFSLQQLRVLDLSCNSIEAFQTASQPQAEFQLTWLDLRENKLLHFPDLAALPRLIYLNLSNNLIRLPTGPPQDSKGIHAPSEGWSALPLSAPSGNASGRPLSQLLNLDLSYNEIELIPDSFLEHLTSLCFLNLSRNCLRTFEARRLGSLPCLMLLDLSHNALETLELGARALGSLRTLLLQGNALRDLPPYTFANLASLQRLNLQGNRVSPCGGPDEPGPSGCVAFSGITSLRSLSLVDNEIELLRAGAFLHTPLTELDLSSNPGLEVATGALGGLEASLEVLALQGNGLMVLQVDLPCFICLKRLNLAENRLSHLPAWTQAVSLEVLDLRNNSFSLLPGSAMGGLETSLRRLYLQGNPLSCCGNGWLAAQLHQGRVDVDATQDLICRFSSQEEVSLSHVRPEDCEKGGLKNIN
T1 sequence (P01137 30-390 limits assumed, chain 2 of 2): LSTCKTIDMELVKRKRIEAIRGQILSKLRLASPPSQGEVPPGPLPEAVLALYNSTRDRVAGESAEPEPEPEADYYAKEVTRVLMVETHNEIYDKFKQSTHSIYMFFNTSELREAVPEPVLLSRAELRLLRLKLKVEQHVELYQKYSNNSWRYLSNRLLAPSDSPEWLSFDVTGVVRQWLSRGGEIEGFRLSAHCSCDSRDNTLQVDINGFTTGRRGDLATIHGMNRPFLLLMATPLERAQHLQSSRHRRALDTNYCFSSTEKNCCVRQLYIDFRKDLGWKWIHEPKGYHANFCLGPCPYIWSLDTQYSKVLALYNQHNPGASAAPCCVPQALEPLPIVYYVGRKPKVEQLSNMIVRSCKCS
T3 sequence (Q9NS15 44-1303 limits assumed, chain 1 of 2): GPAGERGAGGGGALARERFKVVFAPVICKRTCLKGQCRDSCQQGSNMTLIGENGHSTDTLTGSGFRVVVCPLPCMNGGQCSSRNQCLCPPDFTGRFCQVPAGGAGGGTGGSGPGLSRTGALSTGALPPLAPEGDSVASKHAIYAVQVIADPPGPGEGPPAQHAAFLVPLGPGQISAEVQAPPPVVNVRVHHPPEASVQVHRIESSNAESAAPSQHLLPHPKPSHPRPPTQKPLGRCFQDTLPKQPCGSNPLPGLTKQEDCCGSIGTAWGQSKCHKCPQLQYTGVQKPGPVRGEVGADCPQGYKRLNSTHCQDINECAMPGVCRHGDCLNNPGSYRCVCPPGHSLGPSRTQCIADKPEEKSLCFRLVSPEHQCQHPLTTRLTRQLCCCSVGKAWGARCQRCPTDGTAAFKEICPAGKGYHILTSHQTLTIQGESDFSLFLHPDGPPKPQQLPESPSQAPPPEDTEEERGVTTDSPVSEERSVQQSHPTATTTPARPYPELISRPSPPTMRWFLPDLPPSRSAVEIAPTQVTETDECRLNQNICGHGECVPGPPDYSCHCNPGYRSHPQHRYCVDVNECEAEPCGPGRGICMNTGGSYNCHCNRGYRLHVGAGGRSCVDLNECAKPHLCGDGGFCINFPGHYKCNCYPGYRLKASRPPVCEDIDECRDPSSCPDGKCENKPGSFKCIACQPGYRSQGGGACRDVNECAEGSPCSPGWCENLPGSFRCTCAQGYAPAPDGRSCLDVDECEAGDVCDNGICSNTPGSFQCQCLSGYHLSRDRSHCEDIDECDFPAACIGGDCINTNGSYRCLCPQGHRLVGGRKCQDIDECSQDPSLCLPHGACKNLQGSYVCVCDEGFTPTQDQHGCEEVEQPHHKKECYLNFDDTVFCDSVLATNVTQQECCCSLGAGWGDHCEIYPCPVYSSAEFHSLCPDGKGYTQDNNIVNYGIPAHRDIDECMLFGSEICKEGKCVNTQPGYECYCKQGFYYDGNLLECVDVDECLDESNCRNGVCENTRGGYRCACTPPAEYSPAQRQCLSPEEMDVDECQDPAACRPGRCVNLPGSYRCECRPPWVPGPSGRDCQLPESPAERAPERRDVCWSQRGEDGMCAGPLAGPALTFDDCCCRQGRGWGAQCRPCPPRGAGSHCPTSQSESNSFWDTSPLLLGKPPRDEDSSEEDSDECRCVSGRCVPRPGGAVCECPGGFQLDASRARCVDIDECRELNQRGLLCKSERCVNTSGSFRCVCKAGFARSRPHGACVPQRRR
T3 sequence (P01137 30-390 limits assumed, chain 2 of 2): as the sequence (P01137 30-390 limits assumed, chain 2 of 2) above
T4 sequence (Q14766 347-1721 limits assumed, chain 1 of 2): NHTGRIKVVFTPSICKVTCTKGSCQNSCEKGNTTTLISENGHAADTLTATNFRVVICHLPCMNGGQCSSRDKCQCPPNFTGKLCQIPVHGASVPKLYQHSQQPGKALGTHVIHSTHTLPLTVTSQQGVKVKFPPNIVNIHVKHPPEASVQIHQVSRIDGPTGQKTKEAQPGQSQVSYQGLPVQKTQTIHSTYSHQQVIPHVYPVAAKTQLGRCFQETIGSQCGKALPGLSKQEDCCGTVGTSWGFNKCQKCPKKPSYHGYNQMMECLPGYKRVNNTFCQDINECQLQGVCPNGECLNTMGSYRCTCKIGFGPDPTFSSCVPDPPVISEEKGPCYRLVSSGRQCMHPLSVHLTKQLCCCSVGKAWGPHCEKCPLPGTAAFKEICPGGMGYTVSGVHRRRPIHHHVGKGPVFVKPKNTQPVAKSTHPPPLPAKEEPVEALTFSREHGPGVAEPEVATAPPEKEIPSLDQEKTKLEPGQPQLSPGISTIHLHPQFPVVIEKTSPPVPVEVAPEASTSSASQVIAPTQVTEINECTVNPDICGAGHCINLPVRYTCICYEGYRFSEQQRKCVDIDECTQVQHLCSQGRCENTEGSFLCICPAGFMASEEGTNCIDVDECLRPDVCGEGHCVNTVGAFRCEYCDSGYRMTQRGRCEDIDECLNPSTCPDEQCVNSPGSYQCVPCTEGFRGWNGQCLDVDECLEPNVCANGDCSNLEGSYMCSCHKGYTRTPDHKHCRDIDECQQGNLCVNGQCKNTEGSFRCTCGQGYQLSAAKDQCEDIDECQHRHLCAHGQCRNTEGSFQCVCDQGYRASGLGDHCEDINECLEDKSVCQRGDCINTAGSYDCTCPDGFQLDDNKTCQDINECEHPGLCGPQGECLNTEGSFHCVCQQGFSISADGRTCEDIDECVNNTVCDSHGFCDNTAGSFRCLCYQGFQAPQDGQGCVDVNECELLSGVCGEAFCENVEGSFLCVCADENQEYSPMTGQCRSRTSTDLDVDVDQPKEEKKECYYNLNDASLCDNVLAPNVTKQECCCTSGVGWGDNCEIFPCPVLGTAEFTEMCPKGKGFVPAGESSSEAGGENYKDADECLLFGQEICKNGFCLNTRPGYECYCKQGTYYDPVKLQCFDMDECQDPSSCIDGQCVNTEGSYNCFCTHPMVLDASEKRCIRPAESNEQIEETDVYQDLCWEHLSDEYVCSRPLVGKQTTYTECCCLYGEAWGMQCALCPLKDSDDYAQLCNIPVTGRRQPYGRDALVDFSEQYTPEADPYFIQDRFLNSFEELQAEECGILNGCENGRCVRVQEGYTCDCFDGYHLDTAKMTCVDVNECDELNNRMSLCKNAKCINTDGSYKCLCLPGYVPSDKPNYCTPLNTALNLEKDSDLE
T4 sequence (P01137 30-390 limits assumed, chain 2 of 2): as the sequence (P01137 30-390 limits assumed, chain 2 of 2) above
T2 sequence (Q86YC3 19-650 limits assumed, chain 1 of 2): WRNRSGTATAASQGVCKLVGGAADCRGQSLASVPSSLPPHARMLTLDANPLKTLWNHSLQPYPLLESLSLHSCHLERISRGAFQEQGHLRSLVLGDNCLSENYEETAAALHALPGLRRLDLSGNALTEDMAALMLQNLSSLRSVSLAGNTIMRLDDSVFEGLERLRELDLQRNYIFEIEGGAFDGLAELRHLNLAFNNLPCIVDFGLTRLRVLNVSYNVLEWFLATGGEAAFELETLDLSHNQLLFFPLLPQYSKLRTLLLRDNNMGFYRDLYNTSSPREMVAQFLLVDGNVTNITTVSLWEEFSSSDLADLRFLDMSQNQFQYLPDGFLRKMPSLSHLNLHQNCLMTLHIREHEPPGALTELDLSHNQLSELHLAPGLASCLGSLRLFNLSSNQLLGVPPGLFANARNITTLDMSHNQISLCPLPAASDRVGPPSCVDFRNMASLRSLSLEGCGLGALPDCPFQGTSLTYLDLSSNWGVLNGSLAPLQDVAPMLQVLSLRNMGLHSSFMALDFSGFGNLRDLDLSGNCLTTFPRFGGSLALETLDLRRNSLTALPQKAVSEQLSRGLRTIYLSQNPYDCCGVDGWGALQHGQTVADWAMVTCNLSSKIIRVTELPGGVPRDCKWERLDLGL
T2 sequence (P01137 30-390 limits assumed, chain 2 of 2): as the sequence (P01137 30-390 limits assumed, chain 2 of 2) above

| Binder | Kd [1] [nM] | Kd [2] [nM] | Kd [3] [nM] | Kd [4] [nM] | Kd [5] [nM] | koff [5] [s⁻¹] | kon [5] [M⁻¹ s⁻¹] | Kd [6] [nM] | koff [6] [s⁻¹] | kon [6] [M⁻¹ s⁻¹] | Kd [7] [nM] | koff [7] [s⁻¹] | kon [7] [M⁻¹ s⁻¹] | Kd [8] [nM] | koff [8] [s⁻¹] | kon [8] [M⁻¹ s⁻¹] | fold binding selectivity compared to GARP or LRRC33 complexes [9] [fold] | fold binding selectivity compared to GARP or LRRC33 complexes [10] [fold] | fold specificity over GARP and LRRC33 complexes [11] [fold] | fold specificity over GARP and LRRC33 complexes [12] [fold] |
| --- | --- | --- | --- | --- | --- | --- | --- | --- | --- | --- | --- | --- | --- | --- | --- | --- | --- | --- | --- | --- |
| Ab42 human Fab (Fab, V domains shown, Fab of Ab42; also called Ab42 Fab; Ab42 (monovalent, Fab)) VH: QVQLVESGGGVVQPGRSLRLSCAASGFTFRSYVMHWVRQAPGKGLEWVAVISHEGSLKYYADSVKGRFTISRDNSKNTLYLQMNSLRAEDTAVYYCARPRIAARRGGFGYWGQGTLVTVSS VL: NFMLTQPHSVSESPGKTVTISCTRSSGNIDNNYVQWYQQRPGSSPTTVIYEDNQRPSGVPDRFSGSIDSSSNSASLTISGLKTEDEADYYCQSYDYDTQGVVFGGGTKLTVL | 145 | 134 | 0.57 | 0.38 | 145 | 0.006 | 41500 | 134 | 0.00271 | 20200 | 0.57 | 0.000109 | 191000 | 0.38 | 0.000111 | 293000 | ~100 | ~100 | – | – |
| Ab42 (antibody, V domains shown, also called SR-AB42; SR-Ab42) VH: QVQLVESGGGVVQPGRSLRLSCAASGFTFRSYVMHWVRQAPGKGLEWVAVISHEGSLKYYADSVKGRFTISRDNSKNTLYLQMNSLRAEDTAVYYCARPRIAARRGGFGYWGQGTLVTVSS VL: NFMLTQPHSVSESPGKTVTISCTRSSGNIDNNYVQWYQQRPGSSPTTVIYEDNQRPSGVPDRFSGSIDSSSNSASLTISGLKTEDEADYYCQSYDYDTQGVVFGGGTKLTVL | – | – | – | – | – | – | – | – | – | – | – | – | – | – | – | – | – | – | > 100 | > 100 |
